{
  "source": "paper PMC9807911",
  "about": "“RH5.1-CyRPA-Ripr antigen combination vaccine shows little improvement over RH5.1 in a preclinical setting” (Frontiers in Cellular and Infection Microbiology, 2022)",
  "binders": {"B1": {"name": "RH5.1 (E26-Q526; T40A, T216A, T286A, T299A) (natural protein)", "chain": "ENAIKKTKNQENNLALLPIKSTEEEKDDIKNGKDIKKEIDNDKENIKTNNAKDHSTYIKSYLNTNVNDGLKYLFIPSHNSFIKKYSVFNQINDGMLLNEKNDVKNNEDYKNVDYKNVNFLQYHFKELSNYNIANSIDILQEKEGHLDFVIIPHYTFLDYYKHLSYNSIYHKSSTYGKCIAVDAFIKKINEAYDKVKSKCNDIKNDLIATIKKLEHPYDINNKNDDSYRYDISEEIDDKSEETDDETEEVEDSIQDTDSNHAPSNKKKNDLMNRAFKKMMDEYNTKKKKLIKCIKNHENDFNKICMDMKNYGTNLFEQLSCYNNNFCNTNGIRYHYDEYIHKLILSVKSKNLNKDLSDMTNILQQSELLLTNLNKKMGSYIYIDTIKFIHKEMKHIFNRIEYHTKIINDKTKIIQDKIKLNIWRTFQKDELLKRILDMSNEYSLFITSDHLRQMLYNTFYSKEKHLNNIFHHLIYVLQMKFNDVPIKMEYFQTYKKNKPLTQ"}},
  "target": "CyRPA (D29-E362; S147A, T324A, T340A) (Plasmodium falciparum 3D7, UniProt Q8IFM8 29-362, S147A | T324A | T340A)",
  "test": "gel electrophoresis",
  "settings": "both partners purified",
  "data": [
    {"binder": "B1", "values": [
      {"measurement": "binding result", "value": "binds"}
    ]}
  ]
}
